Measurements as given in patent publication US20250090676A1 (SUTRO BIOPHARMA, published 2025).
Positions count from the first letter of the chain named.

B1: SRP1848-A02 (antibody, V domains shown)
VH: EVQLVESGGGLVQPGGSLRLSCAASGFNISGFRIHWVRQAPGKGLEWVAGIYPESGATYYADSVKGRFTISADTSKNTAYLQMNSLRAEDTAVYYCARHLYVWDWVLDHVLDYWGQGTLVTVSS
VL: not shown
notes: IgG with common trastuzumab LC, cell-free expressed, HIS- and FLAG-tagged; also called Antibody 2
B2: SRP1848-A01 (antibody, V domains shown)
VH: EVQLVESGGGLVQPGGSLRLSCAASGFNITRYSIHWVRQAPGKGLEWVAGILPESGGTSYADSVKGRFTISADTSKNTAYLQMNSLRAEDTAVYYCARHIYPWDWFSNYVLDYWGQGTLVTVSS
VL: not shown
notes: IgG with common trastuzumab LC, cell-free expressed, HIS- and FLAG-tagged; also called Antibody 1
B3: SRP1848-F04 (antibody, V domains shown)
VH: EVQLVESGGGLVQPGGSLRLSCAASGFNISNYSIHWVRQAPGKGLEWVGEIYPIDGITDYADSVKGRFTISADTSKNTAYLQMNSLRAEDTAVYYCARGSWFWRSGYGYYLDYWGQGTLVTVSS
VL: not shown
notes: IgG with common trastuzumab LC, cell-free expressed, HIS- and FLAG-tagged; also called Antibody 39
B4: SRP1848-B07 (antibody, V domains shown)
VH: EVQLVESGGGLVQPGGSLRLSCAASGFNISRFYIHWVRQAPGKGLEWVGGISPYDGFTDYADSVKGRFTISADTSKNTAYLQMNSLRAEDTAVYYCARGSWSWPAGYGYYQDYWGQGTLVTVSS
VL: not shown
notes: IgG with common trastuzumab LC, cell-free expressed, HIS- and FLAG-tagged; also called Antibody 14
B5: SRP1848-C04 (antibody, V domains shown)
VH: B3 VH with S30R, N31H, I54G, D55P, I57N, W101L, F102S, S105A
VL: not shown
notes: IgG with common trastuzumab LC, cell-free expressed, HIS- and FLAG-tagged; also called Antibody 20
B6: SRP1848-B01 (antibody, V domains shown)
VH: B3 VH with S30R, I54V, S100F, F102S, R104P, G108S, Y110F
VL: not shown
notes: IgG with common trastuzumab LC, cell-free expressed, HIS- and FLAG-tagged; also called Antibody 9
B7: SRP1848-A08 (antibody, V domains shown)
VH: B3 VH with F27S, S30R, N31K, Y32H, E50S, I54N, I57T, S105A
VL: not shown
notes: IgG with common trastuzumab LC, cell-free expressed, HIS- and FLAG-tagged; also called Antibody 6
B8: SRP1848-B11 (antibody, V domains shown)
VH: B3 VH with S30G, Y32N, E50D, Y52S, I57F, F102S, S105A
VL: not shown
notes: IgG with common trastuzumab LC, cell-free expressed, HIS- and FLAG-tagged; also called Antibody 17
B9: SRP1848-D02 (antibody, V domains shown)
VH: B4 VH with R31H, F32N, S52T, Y54Q, F57Y, S85R, S100A, P104R, Q111L
VL: not shown
notes: IgG with common trastuzumab LC, cell-free expressed, HIS- and FLAG-tagged; also called Antibody 24
B10: SRP1848-A04 (antibody, V domains shown)
VH: B3 VH with S30D, N31Q, Y32S, E50V, I54V, I57T, S100A, F102S, L111I
VL: not shown
notes: IgG with common trastuzumab LC, cell-free expressed, HIS- and FLAG-tagged; also called Antibody 3
B11: SRP1848-B03 (antibody, V domains shown)
VH: B4 VH with R31M, F32K, S52T, Y54I, F57M, A105S, G108S, Q111L
VL: not shown
notes: IgG with common trastuzumab LC, cell-free expressed, HIS- and FLAG-tagged; also called Antibody 10
B12: SRP1848-C03 (antibody, V domains shown)
VH: B3 VH with S30G, N31V, I57N, F102A, G108S
VL: not shown
notes: IgG with common trastuzumab LC, cell-free expressed, HIS- and FLAG-tagged; also called Antibody 19
B13: SRP1848-D05 (antibody, V domains shown)
VH: B4 VH with R31I, F32S, Y54I, F57Y, P104R, Q111L
VL: not shown
notes: IgG with common trastuzumab LC, cell-free expressed, HIS- and FLAG-tagged; also called Antibody 27
B14: SRP1848-B06 (antibody, V domains shown)
VH: B4 VH with R31N, F32Y, S52T, Y54I, F57Y, S100F, A105S
VL: not shown
notes: IgG with common trastuzumab LC, cell-free expressed, HIS- and FLAG-tagged; also called Antibody 13
B15: SRP1848-B04 (antibody, V domains shown)
VH: B3 VH with G26S, Y32H, I54V, S100R, W101Y, F102S, S105A, G108S
VL: not shown
notes: IgG with common trastuzumab LC, cell-free expressed, HIS- and FLAG-tagged; also called Antibody 11
B16: SRP1848-D07 (antibody, V domains shown)
VH: B3 VH with N31K, S33Y, E50G, Y52S, I54N, I57Y, T69A, S100F, F102A
VL: not shown
notes: IgG with common trastuzumab LC, cell-free expressed, HIS- and FLAG-tagged; also called Antibody 28
B17: SRP1848-C05 (antibody, V domains shown)
VH: B3 VH with S30R, N31K, E50D, Y52F, T58N, F102S, R104K, S105A
VL: not shown
notes: IgG with common trastuzumab LC, cell-free expressed, HIS- and FLAG-tagged; also called Antibody 21
B18: SRP1848-A07 (antibody, V domains shown)
VH: B3 VH with S30G, N31Y, Y32H, Y52F, I54V, I57T, Q82H, S100F, F102A
VL: not shown
notes: IgG with common trastuzumab LC, cell-free expressed, HIS- and FLAG-tagged; also called Antibody 5
B19: SRP1848-B10 (antibody, V domains shown)
VH: B3 VH with I29T, S30T, N31T, Y32K, I54R, S100G, F102H, G108S
VL: not shown
notes: IgG with common trastuzumab LC, cell-free expressed, HIS- and FLAG-tagged; also called Antibody 16
B20: SRP1848-C01 (antibody, V domains shown)
VH: EVQLVESGGGLVQPGGSLRLSCAASGFNIGNSYIHWVRQAPGKGLEWVGGVTPNDGYTDYADSVKGRFTISADTSKNTTYLQMNSLRAEDTAVYYCARGSWFWRAGYGYYLDYWGQGALVTVSS
VL: not shown
notes: IgG with common trastuzumab LC, cell-free expressed, HIS- and FLAG-tagged; also called Antibody 18
B21: SRP1848-C10 (antibody, V domains shown)
VH: B4 VH with S30R, R31T, F32Y, Y54I, F57Y, Q111L
VL: not shown
notes: IgG with common trastuzumab LC, cell-free expressed, HIS- and FLAG-tagged; also called Antibody 23
B22: SRP1848-A10 (antibody, V domains shown)
VH: B3 VH with S30R, N31K, V37A, E50D, Y52F, G56D, F102S, R104P, Y107H, G108S
VL: not shown
notes: IgG with common trastuzumab LC, cell-free expressed, HIS- and FLAG-tagged; also called Antibody 8
B23: SRP1848-D09 (antibody, V domains shown)
VH: B3 VH with S33Y, E50G, Y52S, I54N, I57Y, F102S, S105H
VL: not shown
notes: IgG with common trastuzumab LC, cell-free expressed, HIS- and FLAG-tagged; also called Antibody 29
B24: SRP1848-D10 (antibody, V domains shown)
VH: B3 VH with N31R, Y32N, E50W, Y52S, I54N, I57T, T74G, S100A, F102S, L111I
VL: not shown
notes: IgG with common trastuzumab LC, cell-free expressed, HIS- and FLAG-tagged; also called Antibody 30
B25: SRP1848-B09 (antibody, V domains shown)
VH: EVQLVESGGGLVQPGGSLRLSCAAGGFNITNYYIHWVRQAPGKGLEWVGGITPVDGYTDYADRVKGRFTISADTSKNTAYLQMNSLRAEDTAVYYCARGAWSWRSGYGYYMDYWGQGTLVTVSS
VL: not shown
notes: IgG with common trastuzumab LC, cell-free expressed, HIS- and FLAG-tagged; also called Antibody 15
B26: SRP1848-D04 (antibody, V domains shown)
VH: B3 VH with N31H, I54R, R87S, S100Y
VL: not shown
notes: IgG with common trastuzumab LC, cell-free expressed, HIS- and FLAG-tagged; also called Antibody 26
B27: SRP1848-B05 (antibody, V domains shown)
VH: B3 VH with S33Y, E50G, Y52S, I57Y, V64M, N84S, R104Q
VL: not shown
notes: IgG with common trastuzumab LC, cell-free expressed, HIS- and FLAG-tagged; also called Antibody 12
B28: SRP1848-E05 (antibody, V domains shown)
VH: B25 VH with L20V, G25S, T30G, N31V, V54N, R63S, A100F, S102A, M111L
VL: not shown
notes: IgG with common trastuzumab LC, cell-free expressed, HIS- and FLAG-tagged; also called Antibody 34
B29: SRP1848-C07 (antibody, V domains shown)
VH: B3 VH with S30R, N31K, E50D, Y52F, V64M, F102S, R104P, S105A, L111Q
VL: not shown
notes: IgG with common trastuzumab LC, cell-free expressed, HIS- and FLAG-tagged; also called Antibody 22
B30: SRP1848-A09 (antibody, V domains shown)
VH: B3 VH with S30R, N31K, Y32Q, E50S, Y52F, I54N, I57T, M83V, Y110F, D112E
VL: not shown
notes: IgG with common trastuzumab LC, cell-free expressed, HIS- and FLAG-tagged; also called Antibody 7
B31: SRP1848-E01 (antibody, V domains shown)
VH: B4 VH with S30T, R31N, F32K, S52T, Y54F
VL: not shown
notes: IgG with common trastuzumab LC, cell-free expressed, HIS- and FLAG-tagged; also called Antibody 31
B32: SRP1848-E02 (antibody, V domains shown)
VH: B3 VH with S30G, N31K, I54N, I57N, F102S
VL: not shown
notes: IgG with common trastuzumab LC, cell-free expressed, HIS- and FLAG-tagged; also called Antibody 32
B33: SRP1848-A06 (antibody, V domains shown)
VH: B25 VH with G25S, T30G, Y32S, V54I, Y57N, R63S, M111I
VL: not shown
notes: IgG with common trastuzumab LC, cell-free expressed, HIS- and FLAG-tagged; also called Antibody 4

Target: T1, human FOLR1-HIS (human, UniProt P15328 25-233)
T1 construct: Analyte of the Biacore assay; also called FolRα-ECD; extracellular domain of FOLR1; not shown: HIS tag
T1 sequence (P15328 25-233 limits assumed): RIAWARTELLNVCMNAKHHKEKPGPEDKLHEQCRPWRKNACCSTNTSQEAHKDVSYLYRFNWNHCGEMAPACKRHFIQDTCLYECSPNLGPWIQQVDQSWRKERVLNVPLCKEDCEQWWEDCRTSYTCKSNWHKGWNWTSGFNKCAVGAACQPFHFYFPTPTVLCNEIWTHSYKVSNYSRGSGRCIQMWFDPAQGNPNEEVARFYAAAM
Assay: SPR (Biacore), antibody captured on anti-Fc, human FOLR1-HIS analyte, 25 C
Experimental: Anti-Fc polyclonal antibodies were immobilized onto a CM5 chip (GE Life Sciences) using amine coupling chemistry (from Amine Coupling Kit, GE Life Sciences). The immobilization steps were carried out at a flow rate of 25 μL/min in 1×HBS-EP+ buffer (GE Life Sciences; 10× Stock diluted before use). […] Ethanolamine (1 M, pH 8.5) was injected for 7 min to block any remaining activated groups. An average of 12,000 response units (RU) of capture antibody was immobilized on each flow cell.
Off-rate and kinetic binding experiments were performed at 25° C. using 1×HBS-EP+ buffer. […] Between each ligand capture and analyte binding cycle, regeneration was carried out using 2 injections of 10 mM glycine pH 2.0 for 30 seconds at 30 μL/min, followed by a 30 second buffer wash step.
The data were fit with the Biacore T200 Evaluation software, using a 1:1 Langmuir binding model. KD (affinity, nM) was determined as a ratio of the kinetic rate constants calculated from the fits of the association and dissociation phases.

Row | Binder | Kd [nM] | koff [s⁻¹] | kon [M⁻¹ s⁻¹]
1 | B1 | 16.8 | 0.00882 | 525000
2 | B2 | 1.87 | 0.00155 | 829000
3 | B3 | 1.32 | 0.00108 | 815000
4 | B4 | 5.35 | 0.00378 | 706000
5 | B5 | 3.86 | 0.00499 | 1.29e+06
6 | B6 | 3.67 | 0.00416 | 1.13e+06
7 | B7 | 2.42 | 0.00119 | 493000
8 | B8 | 1.52 | 0.00186 | 1.22e+06
9 | B9 | 2.41 | 0.00205 | 851000
10 | B10 | 2.03 | 0.00326 | 1.61e+06
11 | B11 | 7.63 | 0.00859 | 1.13e+06
12 | B12 | 1.11 | 0.00152 | 1.36e+06
13 | B13 | 2.93 |  | 
14 | B14 | 5.1 | 0.00317 | 620000
15 | B15 | 1.5 | 0.00117 | 780000
16 | B16 | 4.7 | 0.00511 | 1.09e+06
17 | B17 | 4.29 | 0.00454 | 1.06e+06

Row | Binder | Kd [nM] | koff [s⁻¹] | kon [M⁻¹ s⁻¹]
18 | B18 | 0.855 | 0.000866 | 1.01e+06
19 | B19 | 2.18 |  | 
20 | B20 | 3.05 |  | 
21 | B21 | 4.03 | 0.00363 | 899000
22 | B22 | 2.74 | 0.0033 | 1.2e+06
23 | B23 | 10.1 | 0.0108 | 1.07e+06
24 | B24 | 4.95 | 0.00558 | 1.13e+06
25 | B25 | 4.26 | 0.00661 | 1.55e+06
26 | B26 | 3.48 | 0.00173 | 497000
27 | B27 | 9.07 | 0.00885 | 976000
28 | B28 | 3.51 | 0.00251 | 716000
29 | B29 | 2.21 | 0.00189 | 856000
30 | B30 | 1.82 |  | 
31 | B31 | 7.87 | 0.00522 | 664000
32 | B32 | 6.21 | 0.00707 | 1.14e+06
33 | B33 | 3.51 |  | 
